Experimental data published in article PMC12475274, “Harnessing indole scaffolds to identify small-molecule IRE1α inhibitors modulating XBP1 mRNA splicing” (Nature Communications, 2025).

Molecular target: the molecule itself
Assay: crystal structure; p-IRE1α (15 mg/mL) co-crystallised with 1 mM IA107; hanging drop, 0.05 M bicine pH 9.0, 36% PEG300, 0.12 M NaCl, 20 °C; four copies in the asymmetric unit

B1: phosphorylated human IRE1α kinase and RNase domain (residues 547–977) (domain or fragment, UniProt O75460 547-977, looked up)
chain: GSSPSLEQDDGDEETSVVIVGKISFCPKDVLGHGAEGTIVYRGMFDNRDVAVKRILPECFSFADREVQLLRESDEHPNVIRYFCTEKDRQFQYIAIELCAATLQEYVEQKDFAHLGLEPITLLQQTTSGLAHLHSLNIVHRDLKPHNILISMPNAHGKIKAMISDFGLCKKLAVGRHSFSRRSGVPGTEGWIAPEMLSEDCKENPTYTVDIFSAGCVFYYVISEGSHPFGKSLQRQANILLGACSLDCLHPEKHEDVIARELIEKMIAMDPQKRPSAKHVLKHPFFWSLEKQLQFFQDVSDRIEKESLDGPIVKQLERGGRAVVKMDWRENITVPLQTDLRKFRTYKGGSVRDLLRAMRNKKHHYRELPAEVRETLGSLPDDFVCYFTSRFPHLLAHTYRAMELCSHERLFQPYYFHEPPEPQPPVTPDAL
modifications: phosphorylated (fully phosphorylated fraction, verified by LC-MS); the phosphorylated residues are not given
notes: Human IRE1α (inositol-requiring enzyme 1 alpha), kinase and RNase domain, residues 547-977; Fully phosphorylated fraction separated from the unphosphorylated protein on the anion exchange column; also called p-IRE1α; phosphorylated IRE1α
  binding result: binds
